The results in this text go back to patent US7087711 (Harvard, dated 2006).

In this experiment the target is T1, TATA-binding protein (TBP) (yeast, UniProt P13393 1-240, limits assumed).
T1 construct: Soluble analyte, injected over Gal4 derivatives captured on DNA in SPR
T1 sequence (looked up): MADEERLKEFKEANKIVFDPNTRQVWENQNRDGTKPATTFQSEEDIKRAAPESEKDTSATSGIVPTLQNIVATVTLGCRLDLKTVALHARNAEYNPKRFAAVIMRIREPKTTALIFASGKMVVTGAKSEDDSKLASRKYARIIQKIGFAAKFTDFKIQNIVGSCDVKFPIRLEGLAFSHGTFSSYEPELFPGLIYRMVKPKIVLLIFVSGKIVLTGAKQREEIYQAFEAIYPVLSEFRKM
Description: SPR, Gal4 derivative captured on a DNA-bearing chip, TBP injected. The procedure:
PROTEIN—PROTEIN INTERACTIONS: The activators (GAL4 derivatives and other activating regions fused to GAL4 DNA binding domain) were first passed over the DNA-bearing chip. Typically 10 µl of 0.01 mg/ml protein solution (~1 µM) in HBS (10 mM HEPES pH 7.4, 150 mM NaCl, 0.0005% Surfectant P20, Pharmacia) were injected at a flow rate of 5 µl/min, and the DNA was saturated by the activators. This is indicated by the first increase of the RU value on the sensorgrams. Various proteins to be tested (e.g., TBP) were then injected (typically 20 µl of […] solution in HBS at a flow rate of 5 µl/min), and their binding to the activating regions was indicated by the second increase of the RU value on the sensogram. The DNA bearing chip was then regenerated by washing with 10 µl of 0.1% SDS, a procedure that washes both proteins off the DNA, but leaves the DNA bearing chip intact. The baseline of the sensorgrams always comes back to the original level after each regeneration. A different activator was then injected to the same surface at the same concentration, and the DNA was once again saturated with the activators. As a consequence the same number of the molecules of the activators was immobilized to the chip each time. The protein to be tested (e.g., TBP) was once again injected and its binding to this activator was compared to that of the previous one. […]
(In SPR one partner is held on a chip, and binding of the other changes the refractive index at the surface.)

B1: GAL4(1-100)+(840-881) fusion (other, yeast, UniProt P04386 1-100, looked up)
chain: MKLLSSIEQACDICRLKKLKCSKEKPKCAKCLKNNWECRYSPKTKRSPLTRAHLTEVESRLERLEQLFLLIFPREDLDMILKMDSLQDIKALLTGLFVQDWTDQTAYNAFGITTGMFNTTTMDDVYNYLFDDEDTPPNPKKE
notes: range 1-100;range 840-881; also called G4RII' (as Gal4(840-881)) fused to Gal4(1-100); RJR182
On to B1, for which the Ka amounted to 6e+06 M⁻¹.

B2: GAL4(1-100)+(840-857) (other, yeast, UniProt P04386 1-100, looked up)
chain: MKLLSSIEQACDICRLKKLKCSKEKPKCAKCLKNNWECRYSPKTKRSPLTRAHLTEVESRLERLEQLFLLIFPREDLDMILKMDSLQDIKALLTGLFVQDWTDQTAYNAFGITTGMFN
notes: range 1-100;range 840-857
Turning to B2, the Ka came to 2e+06 M⁻¹.
